This note sets out measurements from patent publication CN109678957A.

The assay has as its target 人重组TSLP蛋白 (recombinant human TSLP protein from E. coli GDMCC No:60083) (human) (UniProt Q969D9). The assay can be described thus: ELISA, dilution series of the antibody on TSLP antigen protein (Fig. 4). (In general: In an ELISA, binding on a coated surface is turned into a signal by an enzyme label.)
Sequence of UniProt Q969D9 (Q969D9 29-159 limits assumed): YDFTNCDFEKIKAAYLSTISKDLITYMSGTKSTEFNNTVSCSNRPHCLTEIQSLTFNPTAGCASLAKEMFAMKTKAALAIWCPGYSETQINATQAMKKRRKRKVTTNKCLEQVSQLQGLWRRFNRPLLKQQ

B1: 抗人TSLP单克隆抗体 (anti-human TSLP monoclonal antibody, from hybridoma ascites, Example 3) (antibody, IgG1, V domains shown)
VH: QIQLVQSGPELKKPGETVKISCKASGYTFTNYGMNWVKQAPGKGLKWMGWINTYTGEPTYADDFKGRFAFSLETSASTAYLQINNLKNEDMATYFCARGLTGTRGRFAYWGQGTLVTVSA
VL: DIVMTQSHKFMSTSVGDRVSITCKASQDVSTAVAWYQQKPGQSPKLLIYWASTRHTGVPDRFTGSGSGTDYTLTISSVQAEDLALYYCQQHYSTPPTFGGGTKLEIK
In the case of B1, the 效价 (titer, dilution fold at which OD is more than 2 times the negative control) (倍 (dilution fold)) stood at 655000.
